The values that follow come from patent US20210395344A1 (TWIST BIOSCIENCE, published 2021).

B1: 1-29 (antibody, V domains shown)
VH: EVQLLESGGGLVQPGGSLRLSCAASGFTFSSYAMYWVRQAPGKGLEWVSAISGSAGSTYYADSVKGRFTISRDNSKNTLYLQMNSLRAEDTAVYYCARDTNDFWSGYSIFDPWGQGTLVTVSS
VL: QSALTQPASVSGSPGQSITISCTGTSSDIGSYNLVSWYQQHPGKAPKLMIYEGTKRPSGVSNRFSGSKSGNTASLTISGLQAEDEADYYCCSYAGSRTYVFGGGTKLTVL
notes: also called variant 1-29
B2: 1-2 (antibody, V domains shown)
VH: EVQLLESGGGLVQPGGSLRLSCAASGFTFSSQAMSWVRQAPGKGLEWVSAISGSGGGTYYADSVKGRFTISRDNSKNTLYLQMNSLRAEDTAVYYCAKDRRFGEFDPWGQGTLVTVSS
VL: QSALTQPASVSGSPGQSITISCTGTSSGVGSYNLVSWYQQHPGKAPKLMIYEGIKRPSGVSNRFSGSKSGNTASLTISGLQAEDEADYYCCSYAGSSSFVVFGGGTKLTVL
notes: also called variant 1-2
B3: 1-27 (antibody, V domains shown)
VH: EVQLLESGGGLVQPGGSLRLSCAASGFTFSSYAMTWVRQAPGKGLEWVSAISGSGGGTYYADSVKGRFTISRDNSKNTLYLQMNSLRAEDTAVYYCASSSSWQFDYWGQGTLVTVSS
VL: B2 VL with G28Y, S31H, I54S, K55R, S97Y, S98T, F99H, V100Y
notes: also called variant 1-27
B4: 1-31 (antibody, V domains shown)
VH: EVQLLESGGGLVQPGGSLRLSCAASGFTFSSYAMNWVRQAPGKGLEWVSAISGSGGSTFYADSVKGRFTISRDNSKNTLYLQMNSLRAEDTAVYYCTRPPYGDYGDYWGQGTLVTVSS
VL: B2 VL with G28D, S31K, I54S, K55Q, S97R, S98T, F99P
notes: also called variant 1-31
B5: 1-30 (antibody, V domains shown)
VH: B4 VH with N35T
VL: B2 VL with S27R, G28D, I54T, S97R, S98T, F99P
notes: also called variant 1-30
B6: 1-3 (antibody, V domains shown)
VH: B2 VH
VL: B2 VL with T25I, G28D, I54T
notes: also called variant 1-3
B7: 1-4 (antibody, V domains shown)
VH: B2 VH
VL: B2 VL with G28D, S31T, I54S, K55Q
notes: also called variant 1-4
B8: 1-28 (antibody, V domains shown)
VH: B3 VH with A33G, T35S
VL: B2 VL with I54S, K55Q, S98T, F99H, V100Y
notes: also called variant 1-28
B9: 1-5 (antibody, V domains shown)
VH: B2 VH
VL: B2 VL with G53A, I54S, S97Y, S98T, V100A
notes: also called variant 1-5
B10: 1-49 (antibody, V domains shown)
VH: EVQLLESGGGLVQPGGSLRLSCAASGFTFSSYAMYWVRQAPGKGLEWVSAISGSAGSTYYADSVKGRFTISRDNSKNTLYLQMNSLRAEDTAVYYCARDTNDFWGQGTLVTVSS
VL: B1 VL
notes: also called variant 1-49
B11: 1-48 (antibody, V domains shown)
VH: B1 VH with Y32H, R98H, N101K, S108C
VL: B1 VL
notes: also called variant 1-48
B12: 1-35 (antibody, V domains shown)
VH: EVQLLESGGGLVQPGGSLRLSCAASGFTFSNYAMSWVRQAPGKGLEWVSDISGSGGSTYYADSVKGRFTISRDNSKNTLYLQMNSLRAEDTAVYYCVKGTIPIFGVIRSAFDYWGQGTLVTVSS
VL: B2 VL with G28D, N33S, I54T, S97Y, F99Y
notes: also called variant 1-35
B13: 1-20 (antibody, V domains shown)
VH: EVQLLESGGGLVQPGGSLRLSCAASGITFSSYAMSWVRQAPGKGLEWVSGISGSGGSTYYADSVKGRFTISRDNSKNTLYLQMNSLRAEDTAVYYCANHGSGTIFGVVIAKYYFDYWGQGTLVTVSS
VL: B2 VL with G28D, S31H, I54T
notes: also called variant 1-20
B14: 1-12 (antibody, V domains shown)
VH: B13 VH with N98K
VL: B2 VL with G28D, S31H, I54T
notes: also called variant 1-12
B15: 1-23 (antibody, V domains shown)
VH: EVQLLESGGGLVQPGGSLRLSCAASGFTFSSYAISWVRQAPGKGLEWVSIISGSGGSTYYADSVKGRFTISRDNSKNTLYLQMNSLRAEDTAVYYCAREGYRDYLWYFDLWGQGTLVTVSS
VL: QSALTQPASVSGSPGQSITISCTGTSNDVGSYNLVSWYQQHPGKAPKLMIYEGNKRPSGVSNRFSGSKSGNTASLTISGLQAEDEADYYCCSYAGSYTVFGGGTKLTVL

Residue numbers refer to the chain shown, from its start.

The koff is the rate constant with which the complex falls apart. As a reminder, the kon is the rate constant with which the complex forms. Read a low kon as slow association. Broadly, the Kd is the free concentration of one partner at which half of the binding sites on the other are occupied at equilibrium, for simple one-to-one binding.

The target of one experiment is T1, S1-Fc (SARS-CoV-2, UniProt P0DTC2 16-685). As to the kind of experiment: phage ELISA. (In an ELISA, binding on a coated surface is turned into a signal by an enzyme label.)
On to B1, for which the “ELISA fold over background” value turned out to be 1 fold over background.

In the case of B2, the “ELISA fold over background” value came to 1.7 fold over background.

For the molecule B3, the “ELISA fold over background” value was 1.3 fold over background.

For the molecule B4, the “ELISA fold over background” value came out at 15.7 fold over background.

Regarding B5, the “ELISA fold over background” value was 5.6 fold over background.

Take B6: the “ELISA fold over background” value is 1.5 fold over background.

For B7, the “ELISA fold over background” value stood at 0.9 fold over background.

With B8, the “ELISA fold over background” value was found to be 1.1 fold over background.

Regarding B9, the “ELISA fold over background” value amounted to 1.2 fold over background.

The next experiment addresses T2, COVID S1 RBM Fc fusion (Antigen 2) (SARS-CoV-2, UniProt P0DTC2 437-508).
T2 construct: domain: RBM
As to the kind of experiment: phage ELISA.
B1: the “ELISA fold over background” value was 0.9 fold over background.

For the molecule B10, the “ELISA fold over background” value came out at 0.8 fold over background.

As to B11, the “ELISA fold over background” value worked out at 0.8 fold over background.

Consider B2, for which the “ELISA fold over background” value stood at 1.7 fold over background.

On to B3, for which the “ELISA fold over background” value amounted to 1.6 fold over background.

Turning to B4, the “ELISA fold over background” value came to 1.2 fold over background.

With B12, the “ELISA fold over background” value came to 1.6 fold over background.

For B5, the “ELISA fold over background” value worked out at 1.4 fold over background.

Take B6: the “ELISA fold over background” value came to 1.5 fold over background.

B7: the “ELISA fold over background” value turned out to be 1.1 fold over background.

Regarding B13, the “ELISA fold over background” value was 0.8 fold over background.

As for B8, the “ELISA fold over background” value came out at 1.2 fold over background.

As to B9, the “ELISA fold over background” value came to 1.4 fold over background.

A further experiment concerns the target T1, S1-Fc. Put plainly: phage ELISA. The source holds these as a separate data set.
For B1, the “ELISA fold over background” value came out at 1 fold over background.

As for B2, the “ELISA fold over background” value stood at 1.7 fold over background.

For B3, the “ELISA fold over background” value was found to be 1.3 fold over background.

In the case of B4, the “ELISA fold over background” value was 15.7 fold over background.

Turning to B5, the “ELISA fold over background” value came to 5.6 fold over background.

For B6, the “ELISA fold over background” value was found to be 1.5 fold over background.

Consider B7, for which the “ELISA fold over background” value turned out to be 0.9 fold over background.

B8: the “ELISA fold over background” value amounted to 1.1 fold over background.

For the molecule B9, the “ELISA fold over background” value is 1.2 fold over background.

The target in the next experiment is T2, COVID S1 RBM Fc fusion (Antigen 2). As to the kind of experiment: phage ELISA. The source holds these as a separate data set.
As for B1, the “ELISA fold over background” value was 0.9 fold over background.

On to B10, for which the “ELISA fold over background” value came out at 0.8 fold over background.

Take B11: the “ELISA fold over background” value came out at 0.8 fold over background.

Take B2: the “ELISA fold over background” value amounted to 1.7 fold over background.

As for B3, the “ELISA fold over background” value was 1.6 fold over background.

Consider B4, for which the “ELISA fold over background” value is 1.2 fold over background.

B12: the “ELISA fold over background” value turned out to be 1.6 fold over background.

In the case of B5, the “ELISA fold over background” value came to 1.4 fold over background.

Take B6: the “ELISA fold over background” value is 1.5 fold over background.

For B7, the “ELISA fold over background” value was 1.1 fold over background.

With B13, the “ELISA fold over background” value was determined as 0.8 fold over background.

As for B8, the “ELISA fold over background” value turned out to be 1.2 fold over background.

For B9, the “ELISA fold over background” value is 1.4 fold over background.

The target of the next experiment is T3, SARS-CoV-2 S1 (antigen of the Carterra SPR kinetics) (SARS-CoV-2, UniProt P0DTC2 16-685). As to the kind of experiment: Carterra SPR.
With B1, the off-rate constant (koff) was found to be 0.00197 s⁻¹ and the kon turned out to be 535 M⁻¹ s⁻¹.

For B2, the koff stood at 0.0272 s⁻¹ and the kon was found to be 1580 M⁻¹ s⁻¹.

In the case of B3, the off-rate constant (koff) amounted to 0.00285 s⁻¹ and the on-rate constant (kon) is 227000 M⁻¹ s⁻¹.

For the molecule B4, the dissociation rate constant (koff) was 0.000762 s⁻¹ and the association rate constant (kon) worked out at 20500 M⁻¹ s⁻¹.

In turn, B5 returned a dissociation rate constant (koff) of 0.00164 s⁻¹ and a kon of 43900 M⁻¹ s⁻¹.

B6 showed a koff of 0.304 s⁻¹ and a kon of 1.42e+06 M⁻¹ s⁻¹.

B7 yielded a koff of 0.124 s⁻¹ and a kon of 42000 M⁻¹ s⁻¹.

In turn, B8 yielded a dissociation rate constant (koff) of 9.05 s⁻¹ and a kon of 1.23e+08 M⁻¹ s⁻¹.

In turn, B9 registered a koff of 0.054 s⁻¹ and a kon of 2150 M⁻¹ s⁻¹.

In the next experiment the target is T3, SARS-CoV-2 S1 (antigen of the Carterra …). Put plainly: Carterra SPR. This is another data set of the same source.
In the case of B1, the affinity, expressed as Kd, was 3.68 µM; the off-rate constant (koff) was determined as 0.00197 s⁻¹; the kon was 535 M⁻¹ s⁻¹.

B2 came in with a Kd of 17.2 µM, a koff of 0.0272 s⁻¹ and a kon of 1580 M⁻¹ s⁻¹.

B14 showed a Kd of 0.372 µM.

With B3, binding was characterised by a dissociation constant (Kd) of 0.0125 µM, the koff was 0.00285 s⁻¹ and the on-rate constant (kon) was determined as 227000 M⁻¹ s⁻¹.

As to B4, binding was put at a Kd of 0.0372 µM, the off-rate (koff) stood at 0.000762 s⁻¹ and the on-rate constant (kon) is 20500 M⁻¹ s⁻¹.

With B5, binding was characterised by a dissociation constant (Kd) of 0.0372 µM, the koff was 0.00164 s⁻¹ and the on-rate constant (kon) is 43900 M⁻¹ s⁻¹.

Turning to B6, the dissociation constant Kd was 0.215 µM, the off-rate (koff) amounted to 0.304 s⁻¹ and the kon turned out to be 1.42e+06 M⁻¹ s⁻¹.

Consider B7, for which binding was characterised by a dissociation constant (Kd) of 2.95 µM, the dissociation rate constant (koff) came to 0.124 s⁻¹ and the kon is 42000 M⁻¹ s⁻¹.

For B8, the Kd was determined as 0.0735 µM, the koff was determined as 9.05 s⁻¹ and the kon stood at 1.23e+08 M⁻¹ s⁻¹.

B9 returned a Kd of 25.2 µM, a koff of 0.054 s⁻¹ and an association rate constant (kon) of 2150 M⁻¹ s⁻¹.

The target of another experiment is T4, SARS-CoV-2 Spike Glycoprotein S1 (subunit 1) (SARS-CoV-2, UniProt P0DTC2 16-685).
T4 construct: also called S1 Monomer; SARS-CoV-2 S1
As to the kind of experiment: screening phage ELISA, mean.
For the molecule B15, the “ELISA (Avg)” value is 23.1.

The target in the next experiment is T4, SARS-CoV-2 Spike Glycoprotein S1 …. Put plainly: screening phage ELISA, mean. This is another data set of the same source.
B15: the “ELISA (Avg)” value is 23.1.
